{"source": "paper PMC4451130", "key": {"[1]": {"target": "Glu-plasminogen (Plg) (human)", "sequence (P00747 20-810)": "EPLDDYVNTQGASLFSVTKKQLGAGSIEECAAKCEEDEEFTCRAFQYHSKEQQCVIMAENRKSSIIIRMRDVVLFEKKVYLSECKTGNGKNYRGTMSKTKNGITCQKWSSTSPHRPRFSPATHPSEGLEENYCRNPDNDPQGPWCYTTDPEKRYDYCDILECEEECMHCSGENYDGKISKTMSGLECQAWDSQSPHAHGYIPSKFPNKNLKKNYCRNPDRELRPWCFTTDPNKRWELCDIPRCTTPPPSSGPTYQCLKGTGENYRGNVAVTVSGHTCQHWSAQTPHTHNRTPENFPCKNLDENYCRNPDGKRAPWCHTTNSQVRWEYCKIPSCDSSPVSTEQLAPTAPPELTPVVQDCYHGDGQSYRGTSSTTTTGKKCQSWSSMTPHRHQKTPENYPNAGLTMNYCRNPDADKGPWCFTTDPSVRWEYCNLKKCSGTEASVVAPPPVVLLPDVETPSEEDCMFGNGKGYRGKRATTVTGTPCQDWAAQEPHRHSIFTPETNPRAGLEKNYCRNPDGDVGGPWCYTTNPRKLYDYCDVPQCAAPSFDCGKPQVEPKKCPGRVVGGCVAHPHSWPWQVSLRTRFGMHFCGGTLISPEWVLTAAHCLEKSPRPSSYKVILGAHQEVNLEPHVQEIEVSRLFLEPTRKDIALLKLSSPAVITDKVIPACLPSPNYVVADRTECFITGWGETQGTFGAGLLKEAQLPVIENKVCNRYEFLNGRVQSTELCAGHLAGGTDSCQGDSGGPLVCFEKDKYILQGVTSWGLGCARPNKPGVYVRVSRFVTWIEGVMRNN", "test": "ELISA"}, "[2]": {"target": "Fibrinogen (FG), human plasma, plasminogen-depleted (human) (UniProt P02671)", "sequence (P02671 36-866, chain 1 of 3)": "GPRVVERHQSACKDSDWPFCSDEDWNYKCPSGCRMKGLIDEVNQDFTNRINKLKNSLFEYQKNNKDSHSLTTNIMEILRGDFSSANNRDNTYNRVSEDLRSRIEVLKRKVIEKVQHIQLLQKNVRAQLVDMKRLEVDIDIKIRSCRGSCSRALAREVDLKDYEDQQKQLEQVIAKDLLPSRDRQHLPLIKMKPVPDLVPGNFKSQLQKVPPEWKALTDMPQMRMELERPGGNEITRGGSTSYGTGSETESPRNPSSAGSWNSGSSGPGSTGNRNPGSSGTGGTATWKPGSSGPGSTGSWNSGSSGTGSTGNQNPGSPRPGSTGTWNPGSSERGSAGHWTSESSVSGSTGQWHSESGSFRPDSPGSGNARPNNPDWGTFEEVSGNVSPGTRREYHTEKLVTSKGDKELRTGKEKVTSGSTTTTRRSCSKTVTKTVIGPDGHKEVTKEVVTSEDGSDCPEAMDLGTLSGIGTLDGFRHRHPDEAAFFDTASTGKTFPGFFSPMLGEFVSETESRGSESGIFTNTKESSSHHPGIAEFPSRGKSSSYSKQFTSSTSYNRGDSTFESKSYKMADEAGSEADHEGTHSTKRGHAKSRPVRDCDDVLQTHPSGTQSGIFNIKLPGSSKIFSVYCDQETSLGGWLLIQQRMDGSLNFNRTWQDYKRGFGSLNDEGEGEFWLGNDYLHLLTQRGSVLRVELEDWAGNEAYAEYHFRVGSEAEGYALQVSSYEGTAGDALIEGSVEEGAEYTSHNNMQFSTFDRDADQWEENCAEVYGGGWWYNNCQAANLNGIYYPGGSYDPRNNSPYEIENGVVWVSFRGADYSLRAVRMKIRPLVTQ", "sequence (P02675 45-491, chain 2 of 3, further chain)": "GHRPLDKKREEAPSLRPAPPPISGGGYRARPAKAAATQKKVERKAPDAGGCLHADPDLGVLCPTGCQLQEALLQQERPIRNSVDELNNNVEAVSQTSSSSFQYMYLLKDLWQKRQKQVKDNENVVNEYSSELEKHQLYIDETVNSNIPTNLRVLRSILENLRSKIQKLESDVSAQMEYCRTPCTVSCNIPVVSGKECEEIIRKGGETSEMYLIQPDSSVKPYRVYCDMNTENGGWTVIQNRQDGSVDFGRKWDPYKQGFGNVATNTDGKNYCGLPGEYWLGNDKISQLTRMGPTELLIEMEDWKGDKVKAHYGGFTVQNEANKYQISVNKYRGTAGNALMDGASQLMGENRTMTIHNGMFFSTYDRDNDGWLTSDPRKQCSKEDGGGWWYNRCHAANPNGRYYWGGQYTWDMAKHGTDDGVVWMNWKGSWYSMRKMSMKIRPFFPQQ", "sequence (P02679 27-453, chain 3 of 3, further chain)": "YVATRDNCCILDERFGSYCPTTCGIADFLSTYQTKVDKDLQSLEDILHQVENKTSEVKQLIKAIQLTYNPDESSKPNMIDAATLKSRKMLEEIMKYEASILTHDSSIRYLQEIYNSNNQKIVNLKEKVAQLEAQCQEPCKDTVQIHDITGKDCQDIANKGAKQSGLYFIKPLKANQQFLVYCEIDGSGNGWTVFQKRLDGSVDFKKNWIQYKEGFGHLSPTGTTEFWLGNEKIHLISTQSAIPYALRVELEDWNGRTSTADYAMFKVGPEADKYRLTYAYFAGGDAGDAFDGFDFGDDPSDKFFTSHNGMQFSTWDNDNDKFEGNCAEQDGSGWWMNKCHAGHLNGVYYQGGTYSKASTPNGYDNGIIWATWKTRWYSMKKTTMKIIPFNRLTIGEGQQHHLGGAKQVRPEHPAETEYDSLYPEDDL", "test": "ELISA"}}}
{"substance": "Biotin-conjugated PTX3 (b-PTX3) (from UniProt P26022 18-381) (natural protein)", "values": [{"measurement": "Kd", "setting": "[1]", "result": 0.0667, "unit": "µM"}, {"measurement": "Kd", "setting": "[2]", "result": 0.0312, "unit": "µM"}]}
